Laboratory results as given in article PMC8155666, “Engineering Promiscuous Alcohol Dehydrogenase Activity of a Reductive Aminase AspRedAm for Selective Reduction of Biobased Furans” (Frontiers in Chemistry, 2021).

What was measured:
O=Cc1ccc(CO)o1 = system: T1, O=Cc1ccc(CO)o1; assay: purified protein; type: biochemical, Aspergillus oryzae; settings: 0.2 mM NADH, 100 mM Tris-HCl pH 8, 30°C, 1 μM-5 mM HMF, 37 μg/ml enzyme
T1 construct: recombinant, purified

purified protein = substrate: O=Cc1ccc(CO)o1; assay: purified protein; settings: 0.2 mM NADH, 100 mM Tris-HCl pH 9, 30°C, 1 μM-5 mM HMF, 43 μg/ml enzyme

Row | Molecule | Km (O=Cc1ccc(CO)o1) | kcat (O=Cc1ccc(CO)o1) [s⁻¹] | kcat/Km (O=Cc1ccc(CO)o1) [M⁻¹ s⁻¹] | Km (purified protein) | kcat (purified protein) [s⁻¹] | kcat/Km (purified protein) [M⁻¹ s⁻¹]
1 | AspRedAm (Aspergillus oryzae RIB40; N93A) | 4.1 ± 0.7 ×10^-3 mM | 0.0967 ± 0.0076 | 23600 ± 2000 |  |  | 
2 | AspRedAm (Aspergillus oryzae RIB40) (protein) MSKHIGIFGLGAMGTALAAKYLEHGYKTSVWNRTTAKAIPLVEQGAKLASTISEGVNANDLIIICLLNNQVVEDALRDALQTLPSKTIVNLTNGTPNQARKLADFVTSHGARYIHGGIMAVPTMIGSPHAVLLYSGESLELFQSIESHLSLLGMSKYLGTDAGSASLHDLALLSGMYGLFSGFLHAVALIKSGQDTSTTATGLLPLLTPWLSAMTGYLSSIAKQIDDGDYATQGSNLGMQLAGVENIIRAGEEQRVSSQMILPIKALIEQAVGEGHGGEDLSALIEYFKVGKNVD |  |  |  | 1.3 ± 0.2 ×10^-3 mM | 0.0175 | 13100
